Measured values taken from patent US20130266574A1 (Regeneron, published 2013).
Values belong to the molecule of their own block, whether it stands above or below them.

Experiments:
bovine LPL = molecular target: T1, bovine LPL (bovine, UniProt P11151 29-478); test: cell-based or functional assay
T1 sequence (looked up): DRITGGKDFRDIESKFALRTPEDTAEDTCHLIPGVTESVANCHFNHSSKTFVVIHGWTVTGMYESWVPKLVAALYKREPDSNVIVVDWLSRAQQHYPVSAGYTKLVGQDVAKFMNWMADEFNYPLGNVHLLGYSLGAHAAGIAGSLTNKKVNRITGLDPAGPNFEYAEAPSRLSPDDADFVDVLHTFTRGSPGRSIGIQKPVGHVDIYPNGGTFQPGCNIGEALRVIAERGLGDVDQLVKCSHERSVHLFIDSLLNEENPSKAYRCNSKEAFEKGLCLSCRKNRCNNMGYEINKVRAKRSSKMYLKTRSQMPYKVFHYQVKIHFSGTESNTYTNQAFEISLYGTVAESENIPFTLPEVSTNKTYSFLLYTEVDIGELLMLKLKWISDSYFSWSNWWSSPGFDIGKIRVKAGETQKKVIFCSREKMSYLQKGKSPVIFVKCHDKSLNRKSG

[1] = molecular target: T2, full-length hANGPTL4 (amino acid residues 26-406 of SEQ ID NO:476) with a C-terminal hexa-histidine tag (human, UniProt Q9BY76 26-406); test: SPR (Biacore), 25° C., pH 5.75, antigen amino-coupled 450 RU
T2 construct: also called hANGPTL4-His; hANGPTL4(26-406)-His
T2 sequence: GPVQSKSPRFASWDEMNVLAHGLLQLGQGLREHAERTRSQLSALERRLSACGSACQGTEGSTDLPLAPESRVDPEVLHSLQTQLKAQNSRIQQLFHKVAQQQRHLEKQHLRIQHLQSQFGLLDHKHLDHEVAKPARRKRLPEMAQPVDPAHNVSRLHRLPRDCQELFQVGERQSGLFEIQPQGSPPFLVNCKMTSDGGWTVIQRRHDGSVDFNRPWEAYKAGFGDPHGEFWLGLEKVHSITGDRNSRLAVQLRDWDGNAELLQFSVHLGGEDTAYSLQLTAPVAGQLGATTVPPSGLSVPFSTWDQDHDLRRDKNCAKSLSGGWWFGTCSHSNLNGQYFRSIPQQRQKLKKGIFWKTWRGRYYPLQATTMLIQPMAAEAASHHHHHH
Method: (§1) Kinetic analysis was performed to measure kₐ and kd, and KD values and half-life of antigen/antibody complex dissociation were calculated. The results are shown in Table 4 (H1H268P) and Table 5 (H1H284P).

[2] = molecular target: T2, full-length hANGPTL4 (amino acid …); test: SPR (Biacore), 25° C., pH 7.2, antigen amino-coupled 450 RU
Method: as §1

[3] = molecular target: T3, cynomolgus monkey ANGPTL4 N-terminal region (amino acid residues 1-130 of SEQ ID NO:490) with a C-terminal … (cynomolgus monkey (Macaca fascicularis), UniProt Q9BY76 26-130 (human entry)); test: SPR (Biacore), 25° C., pH 5.75, antigen amino-coupled 1,028 RU
T3 construct: also called MfANGPTL4(1-130)-His
T3 chain: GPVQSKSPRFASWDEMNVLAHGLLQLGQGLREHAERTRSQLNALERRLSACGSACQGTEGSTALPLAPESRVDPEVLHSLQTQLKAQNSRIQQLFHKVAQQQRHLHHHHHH
Method: as §1

[4] = molecular target: T3, cynomolgus monkey ANGPTL4 N-terminal …; test: SPR (Biacore), 25° C., pH 7.2, antigen amino-coupled 1,028 RU
Method: as §1

[5] = molecular target: T4, amino acid residues 26-148 of human ANGPTL4 fused in-line to mouse IgG2a (hANGPTL4-mFc) (human); test: SPR (Biacore), 25° C., pH 5.75, antigen captured by anti-mFc
T4 construct: contains the N-terminal coiled-coil region
T4 chain: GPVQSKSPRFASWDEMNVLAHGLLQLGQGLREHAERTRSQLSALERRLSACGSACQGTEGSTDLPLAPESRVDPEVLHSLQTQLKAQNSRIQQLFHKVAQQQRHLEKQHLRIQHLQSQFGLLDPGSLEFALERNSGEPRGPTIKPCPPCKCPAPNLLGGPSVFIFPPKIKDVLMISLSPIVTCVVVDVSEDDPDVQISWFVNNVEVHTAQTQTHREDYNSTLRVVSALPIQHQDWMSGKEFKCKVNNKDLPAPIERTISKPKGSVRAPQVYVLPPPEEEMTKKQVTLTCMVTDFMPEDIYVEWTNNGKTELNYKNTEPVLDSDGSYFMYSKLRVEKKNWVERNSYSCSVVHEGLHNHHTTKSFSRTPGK
Method: as §1

[6] = molecular target: T3, cynomolgus monkey ANGPTL4 N-terminal …; test: SPR (Biacore), 25° C., pH 5.75, antigen amino-coupled 1,028 RU; Fab, not full mAb; pH 5.75
Method: as §1

[7] = molecular target: T4, amino acid residues 26-148 of human …; test: SPR (Biacore), 25° C., pH 7.2, antigen captured by anti-mFc
Method: as §1

- EC50 (nM) of the ANGPTL4 protein in the LPL assay (bovine LPL): 3.89 nM
Molecule: cynomolgus monkey ANGPTL4 N-terminal region (amino acid residues 26-148) with an N-terminal hexa-histidine tag (from UniProt Q9BY76 26-148) (ligand)

- Kd [1]: 14.8 nM
- koff [1]: 0.00657 s⁻¹
- kon [1]: 444000 M⁻¹ s⁻¹
- t1/2 [1]: 2 min
- Kd [2]: 16.3 nM
- koff [2]: 0.0118 s⁻¹
- kon [2]: 726000 M⁻¹ s⁻¹
- t1/2 [2]: 1 min
- koff [3]: 0.00432 s⁻¹
- kon [3]: 312000 M⁻¹ s⁻¹
- t1/2 [3]: 3 min
- Kd [4]: 6.42 nM
- koff [4]: 0.00171 s⁻¹
- kon [4]: 267000 M⁻¹ s⁻¹
- t1/2 [4]: 7 min
- Kd [5]: 17.5 nM
- koff [5]: 0.00304 s⁻¹
- kon [5]: 174000 M⁻¹ s⁻¹
- t1/2 [5]: 4 min
- Kd [6]: 13.8 nM
- Kd [7]: 2 nM
- koff [7]: 0.000601 s⁻¹
- kon [7]: 300000 M⁻¹ s⁻¹
- t1/2 [7]: 19 min
B1: H1H268P Fab fragment (Fab, V domains shown)
VH: QVQLQESGAGLLKPSETLSLTCTVYGGSFSIHHWTWIRHPPGKGLEWIGEINHRGSTNYNPSLKSRVTISIDTSKNQFSLKLSAVTAADTAVYYCARGLRFLDWLSSYFDYWGQGTLVTVSS
VL: DIQMTQSPSSLSASVGDRVTITCRASQGISDYLAWYQQKPGKVPNLLIYAASALQSGVPSRFSGSGSGTDFTLTISSLQPEDVATYYCQNYNTAPLTFGGGTKVEIK
notes: Fab made by papain digestion of H1H268P (IgG1); also called H1H268 Fab

- Kd [1]: 1.44 nM
- koff [1]: 0.00173 s⁻¹
- kon [1]: 1.21e+06 M⁻¹ s⁻¹
- t1/2 [1]: 7 min
- Kd [2]: 0.31 nM
- koff [2]: 0.000344 s⁻¹
- kon [2]: 1.11e+06 M⁻¹ s⁻¹
- t1/2 [2]: 34 min
- koff [3]: 0.00619 s⁻¹
- kon [3]: 724000 M⁻¹ s⁻¹
- t1/2 [3]: 2 min
- Kd [4]: 10.1 nM
- koff [4]: 0.00313 s⁻¹
- kon [4]: 310000 M⁻¹ s⁻¹
- t1/2 [4]: 4 min
- Kd [5]: 3.4 nM
- koff [5]: 0.0016 s⁻¹
- kon [5]: 472000 M⁻¹ s⁻¹
- t1/2 [5]: 7 min
- Kd [6]: 8.54 nM
- Kd [7]: 0.823 nM
- koff [7]: 0.000202 s⁻¹
- kon [7]: 245000 M⁻¹ s⁻¹
- t1/2 [7]: 57 min
B2: H1H284P Fab fragment (Fab, V domains shown)
VH: QVQLVESGGGVVQPGRSLRLSCAASGFTFSSYGMHWVRQAPGKGLEWMAVISFDGGNKNNADSVKGRFTISRDNSKNTLYLQMNSLRAEDTAVYYCAKEGDRSGHPYFYYYGLDVWGQGTTVTVS
VL: DIQLTQSPSFLSASVGDRVTITCWASQGISSYLAWYQQKPGKAPKLLIYAASTLQSGVPSRFSGSGSETEFTLTISSLQPEDFATYYCQQLHSYPLTFGGGTKVEIK
notes: Fab made by papain digestion of H1H284P (IgG1); also called H1H284 Fab
